Test results as given in PMC7089606 (Journal of Molecular Biology, 2010).

T1: DmCPD1Bs (D. melanogaster carboxypeptidase D variant 1B short) (Drosophila melanogaster, UniProt P42787)
T1 sequence (P42787 26-435 isoform P42787-7): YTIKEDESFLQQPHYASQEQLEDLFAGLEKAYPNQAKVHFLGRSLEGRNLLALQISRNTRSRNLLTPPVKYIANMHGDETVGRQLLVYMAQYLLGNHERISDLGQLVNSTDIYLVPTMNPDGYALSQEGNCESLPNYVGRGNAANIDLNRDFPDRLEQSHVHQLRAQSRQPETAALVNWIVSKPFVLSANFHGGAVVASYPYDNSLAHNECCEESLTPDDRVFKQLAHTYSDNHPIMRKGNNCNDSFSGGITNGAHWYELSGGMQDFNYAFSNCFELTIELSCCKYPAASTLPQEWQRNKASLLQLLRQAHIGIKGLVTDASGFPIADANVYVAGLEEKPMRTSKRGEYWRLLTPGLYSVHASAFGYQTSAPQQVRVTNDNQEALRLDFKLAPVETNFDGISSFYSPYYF

B1: human CPB (hCPB) (Homo sapiens) (protein)
chain: ATGHSYEKYNKWETIEAWTQQVATENPALISRSVIGTTFEGRAIYLLKVGKAGQNKPAIFMDCGFHAREWISPAFCQWFVREAVRTYGREIQVTELLDKLDFYVLPVLNIDGYIYTWTKSRFWRKTRSTHTGSSCIGTDPNRNFDAGWCEIGASRNPCDETYCGPAAESEKETKALADFIRNKLSSIKAYLTIHSYSQMMIYPYSYAYKLGENNAELNALAKATVKELASLHGTKYTYGPGATTIYPAAGGSDDWAYDQGIRYSFTFELRDTGRYGFLLPESQIRATCEETFLAIKYVASYVLEHLY
B2: DmCPD1Bs (D. melanogaster carboxypeptidase D variant 1B short) (Drosophila melanogaster) (protein)
chain: T1 sequence (P42787 26-435 isoform P42787-7)

Experiments:
[1] = recombinant expression yield in P. pastoris; conditions: glycan lost; control: wild type
[2] = target: T1, DmCPD1Bs (D. melanogaster carboxypeptidase D variant 1B short); assay: crystal structure at […] Å; format: biochemical
purified protein = substrate: N=C(N)NCCC[C@H](NC(=O)CNC(=O)c1ccccc1)C(=O)O; assay: purified protein; conditions: Zn2+

Row | Ki [2] | Molecule | expression_or_secretion [1] | Km (purified protein) | kcat (purified protein) | kcat/Km (purified protein)
1 |  | DmCPD1Bs (carboxypeptidase D variant 1B short, svr-PF): N133Q | decreases |  |  | 
2 |  | DmCPD1Bs (carboxypeptidase D variant 1B short, svr-PF): N269Q | decreases |  |  | 
3 | 670 ± 80 nM | N=C(N)NCCSC(CC(=O)O)C(=O)O (stereo not drawn) [GEMSA, 2-guanidinoethyl-mercaptosuccinic acid] |  |  |  | 
4 |  | B1 |  | 485.3 ± 62.5 µM | 254 ± 11.9 s⁻¹ | 523000 M⁻¹ s⁻¹
5 |  | B2 |  | 1112 ± 167 µM | 38.8 ± 4.1 s⁻¹ | 34900 M⁻¹ s⁻¹
